Source: PMC4151996

Biological target: AcHNL, hydroxynitrile lyase from Acidobacterium capsulatum ATCC 51196 (Acidobacterium capsulatum ATCC 51196)
Test: SEC

stoichiometry N: 4
Substance: AcHNL, hydroxynitrile lyase from Acidobacterium capsulatum ATCC 51196 (enzyme)
